For one experiment, the target named is HLA-B*08:01. As to the kind of experiment: IEDB peptide-MHC binding, purified MHC/competitive/radioactivity; filed as Kd, often an IC50 or EC50 that approximates it; ≥ and ≤ were set here for values at or beyond the usual limits of such assays.
The target in another experiment is HLA-A*32:01. The description is as above. The following applies: source organism: Vaccinia virus WR.
The target of a further experiment is HLA-B*58:01. As to the kind of experiment: IEDB peptide-MHC binding, purified MHC/direct/fluorescence; filed as Kd, often an IC50 or EC50 that approximates it; ≥ and ≤ were set here for values at or beyond the usual limits of such assays. Particulars: source organism: Mycobacterium tuberculosis.
A further experiment deals with HLA-B*57:01. The description is as above. Particulars: source organism: Mycobacterium tuberculosis str. Haarlem.
In the next experiment the target is HLA-B*54:01. Description: IEDB peptide-MHC binding, purified MHC/competitive/radioactivity; filed as Kd, often an IC50 or EC50 that approximates it; ≥ and ≤ were set here for values at or beyond the usual limits of such assays.
A further experiment concerns the target HLA-B*07:02. The experiment is described as above.
The target in the next experiment is HLA-B*35:01. The description is as above.
For experiment [1], the target named is HLA-B*51:01. The experiment is described as above.
Another experiment has as its target HLA-B*53:01. The description is as above.
The next experiment has as its target HLA-A*02:03. Described as above. Particulars: source organism: Dengue virus 1 Brazil/97-11/1997.
A further experiment concerns the target HLA-A*68:02. Described as above.
The target of the next experiment is HLA-A*02:06. The experiment is described as above.
A further experiment addresses HLA-A*01:01. The description is as above. Particulars: source organism: Dengue virus 3 Martinique/1243/1999.
Experiment [2] concerns the target HLA-B*51:01. As to the kind of experiment: IEDB peptide-MHC binding, purified MHC/competitive/fluorescence; filed as Kd, often an IC50 or EC50 that approximates it; ≥ and ≤ were set here for values at or beyond the usual limits of such assays. The following applies: source organism: Mycobacterium tuberculosis H37Ra.
A further experiment has as its target HLA-A*26:01. As to the kind of experiment: IEDB peptide-MHC binding, purified MHC/competitive/radioactivity; filed as Kd, often an IC50 or EC50 that approximates it; ≥ and ≤ were set here for values at or beyond the usual limits of such assays. Particulars: source organism: Dengue virus 1 Brazil/97-11/1997.
The target in the next experiment is HLA-A*02:01. The experiment is described as above. The following applies: source organism: Homo sapiens.
A further experiment addresses HLA-A*11:01. The experiment is described as above. Particulars: source organism: Mammarenavirus machupoense.
[3] abbreviates: source organism: Vaccinia virus WR.
Setting [4] is: source organism: Lymphocytic choriomeningitis virus (strain Armstrong).
The mark [5] stands for this setting: source organism: Triticum aestivum.
Where [6] appears, read: source organism: Dengue virus 1 Brazil/97-11/1997.
Where [7] appears, read: source organism: Dengue virus 3 Martinique/1243/1999.
Setting [8] is: source organism: SARS coronavirus Tor2.

This note sets out measurements from the Immune Epitope Database (IEDB).

For orientation: Kd means the free concentration of one partner at which half of the binding sites on the other are occupied at equilibrium, for simple one-to-one binding.

SLNALFVML: the Kd came to 1.26 µM with HLA-B*08:01 (setting [3]) and 1.23 µM with HLA-A*32:01.
With GAITSAHFM, the Kd in the experiment with HLA-B*58:01 came out at 0.905 µM; with HLA-B*57:01 it was 0.687 µM.
As to EPVPLTVKM, the Kd in the experiment with HLA-B*54:01 (setting [4]) is not below 69.5 µM; with HLA-B*07:02 (setting [4]) it was 15 µM; in the experiment with HLA-B*35:01 (setting [4]) it was 0.0634 µM; with HLA-B*51:01 [1] (setting [4]) it was 12.7 µM; in the experiment with HLA-B*53:01 (setting [4]), 0.327 µM.
In the case of LPYPQPQLPY, the Kd came out at 8.53 µM in the experiment with HLA-B*54:01 (setting [5]); 4.33 µM with HLA-B*07:02 (setting [5]); 0.000487 µM in the experiment with HLA-B*35:01 (setting [5]); 0.00922 µM in the experiment with HLA-B*51:01 [1] (setting [5]); 0.00449 µM with HLA-B*53:01 (setting [5]).
As to MVSAGSGEV, the figures for the Kd with HLA-A*02:03 and with HLA-A*68:02 (setting [6]) were 0.0946 µM and 0.0296 µM, respectively.
For ELVENGKKV, the Kd with HLA-A*68:02 (source organism: Homo sapiens) was determined as 6.35 µM; with HLA-A*02:06 (source organism: Homo sapiens) it was 9.57 µM.
STMTLLCLI: the Kd with HLA-A*68:02 (source organism: Dengue virus 4 Philippines/H241/1956) turned out to be 0.00375 µM.
Take MTTEDMLTV: the Kd was found to be 7.38 µM with HLA-A*01:01, 0.0191 µM in the experiment with HLA-A*68:02 (setting [7]) and 0.00285 µM in the experiment with HLA-A*02:06 (setting [7]).
For LLQEENRQKL, in the experiment with HLA-A*68:02 (source organism: Homo sapiens), the Kd is not below 60 µM.
For the sequence LPVPLFPGF, in the experiment with HLA-B*51:01 [2], the Kd came out at 0.249 µM.
In the case of DTAWDFGSI, the Kd is 0.562 µM with HLA-A*26:01 and 0.00309 µM in the experiment with HLA-A*68:02 (setting [6]).
Turning to IPCRDVVL, the Kd in the experiment with HLA-B*54:01 (setting [5]) is not below 87.7 µM; in the experiment with HLA-B*07:02 (setting [5]), 3.68 µM; with HLA-B*35:01 (setting [5]), 17.1 µM; in the experiment with HLA-B*51:01 [1] (setting [5]) it was 0.0677 µM; in the experiment with HLA-B*53:01 (setting [5]) it was not below 49.1 µM.
Consider APSASAFFGM, for which the Kd is not below 42.7 µM with HLA-B*54:01 (setting [8]); 0.122 µM in the experiment with HLA-B*07:02 (setting [8]); 2.14 µM with HLA-B*35:01 (setting [8]); 1.99 µM with HLA-B*51:01 [1] (setting [8]); 4.11 µM with HLA-B*53:01 (setting [8]).
In the case of ELESQISEL, the results for the Kd with HLA-A*02:01 and in the experiment with HLA-A*68:02 (source organism: Homo sapiens) were not below 78.1 µM and not below 60 µM, respectively.
On to FPDIPVNNNI, for which the Kd with HLA-B*54:01 (setting [3]) is 0.0693 µM; in the experiment with HLA-B*07:02 (setting [3]), 0.821 µM; with HLA-B*35:01 (setting [3]) it was 0.442 µM; in the experiment with HLA-B*51:01 [1] (setting [3]) it was 0.0667 µM; with HLA-B*53:01 (setting [3]), 0.00122 µM.
On the same counts, the results for MPSACANGWI are 5.4 µM, not below 31.4 µM, not below 69.9 µM, not below 43.5 µM and 5.24 µM.
In the case of FPNITNLCPF, the Kd with HLA-B*54:01 (setting [8]) is 0.445 µM; with HLA-B*07:02 (setting [8]), 0.0566 µM; in the experiment with HLA-B*35:01 (setting [8]) it was 0.00166 µM; in the experiment with HLA-B*51:01 [1] (setting [8]), 0.00633 µM; in the experiment with HLA-B*53:01 (setting [8]), 0.000782 µM.
MLNNSFYYM: the Kd in the experiment with HLA-B*54:01 (source organism: Mammarenavirus machupoense) is 7.52 µM; with HLA-A*11:01, 0.195 µM.
In the case of KPLLAPHHVV, the Kd was 7.25 µM with HLA-B*54:01 (setting [8]); 0.179 µM in the experiment with HLA-B*07:02 (setting [8]); not below 69.9 µM with HLA-B*35:01 (setting [8]); not below 69.6 µM with HLA-B*51:01 [1] (setting [8]); not below 69.9 µM with HLA-B*53:01 (setting [8]).
NMDPLNDNI: the equilibrium dissociation constant (Kd) is 1.93 µM with HLA-A*02:01 and not below 85.7 µM with HLA-A*68:02 (source organism: Homo sapiens).
Regarding PPYCTIAPVGI, the Kd in the experiment with HLA-B*54:01 (setting [5]) was not below 27.7 µM; with HLA-B*07:02 (setting [5]), 4.47 µM; with HLA-B*35:01 (setting [5]), not below 63.7 µM; with HLA-B*51:01 [1] (setting [5]), not below 41.3 µM; in the experiment with HLA-B*53:01 (setting [5]) it was not below 63.7 µM.
In the case of RPLMESELVI, the Kd in the experiment with HLA-B*54:01 (setting [8]) was not below 46 µM; with HLA-B*07:02 (setting [8]), 0.666 µM; in the experiment with HLA-B*35:01 (setting [8]), 0.395 µM; in the experiment with HLA-B*51:01 [1] (setting [8]), 0.0329 µM; in the experiment with HLA-B*53:01 (setting [8]), 0.217 µM.
On to RDALDNLAVL, for which the dissociation constant Kd with HLA-B*08:01 (source organism: Dengue virus 2 Jamaica/1409/1983) stood at 1.16 µM.
